System: CCCCCCCCCCCC(=O)Oc1ccc([N+](=O)[O-])cc1
Test: purified protein
Conditions: pH 7.4, 60 °C, substrate 10-30 mM

## EstB (6xHis carboxyl-esterase B) (Geobacillus thermoleovorans)
  Km: 22.756 mM
  kcat: 0.993 s⁻¹

— paper PMC10716096, “A scalable overexpression of a thermostable recombinant poly-histidine tag carboxyl esterase under lambda promoter: purification, characterization, and protein modelling” (Journal of Genetic Engineering & Biotechnology, 2023)
